Assay results reported in patent US20240262917A1, “ANTIBODIES AGAINST ALK AND METHODS OF USE THEREOF” (Dana-Farber Cancer Institute, Inc., priority 2021, published 2024).
One block for each molecule: values may come before it.

Assays:
[1] = biological target: T1, ALK (Homo sapiens, UniProt Q9UM73); assay: Screening and subcloning of hybridomas (ELISA, FCM, functional assays); format: binding; design: The human ALK extracellular domain (19-682 aa) fused to the mouse Fc gene; made in house; host or cells: 293T cells; details: after subcloning by limiting dilution
Method: HAT-selected fused cells were distributed in 96 well plates and the hybridoma supernatants were subjected to several rounds of screening. Initial screening was performed using ELISA against human Fc to test antigen binding with the ALK ECD-human Fc fusion protein. […] These were rescreened by FACS against Ba/F3 and neuroblastoma (NB) cells expressing ALK. From this screen, 22 positive hybridoma supernatants were tested in an antigen-binding capture ELISA assay and 11 were subsequently selected for further analysis. (A) Binding of hybridoma supernatants using an antigen-binding capture assay. The plate was coated with goat-anti-mouse IgG Fc, incubated with hybridoma supernatants, followed by ALK-HRP and visualized using an HRP substrate. (B) Binding of selected hybridoma supernatants to a human Fc antibody using ELISA screening. Plates were coated with the ALK ECD-human Fc fusion protein (ALK-hFc) together with an irrelevant hFc protein and visualized using an anti-mouse kappa light chain antibody. Only the supernatants with the highest binding are shown.
Supernatants from individual clones were then screened by ELISA and FACS analysis for ALK binding. Shown here is the viability of NGP neuroblastoma cells (expressing ALK) in the presence of anti-mouse IgG antibody in hybridoma clone supernatants. […]
Target sequence in this assay (Q9UM73 19-682): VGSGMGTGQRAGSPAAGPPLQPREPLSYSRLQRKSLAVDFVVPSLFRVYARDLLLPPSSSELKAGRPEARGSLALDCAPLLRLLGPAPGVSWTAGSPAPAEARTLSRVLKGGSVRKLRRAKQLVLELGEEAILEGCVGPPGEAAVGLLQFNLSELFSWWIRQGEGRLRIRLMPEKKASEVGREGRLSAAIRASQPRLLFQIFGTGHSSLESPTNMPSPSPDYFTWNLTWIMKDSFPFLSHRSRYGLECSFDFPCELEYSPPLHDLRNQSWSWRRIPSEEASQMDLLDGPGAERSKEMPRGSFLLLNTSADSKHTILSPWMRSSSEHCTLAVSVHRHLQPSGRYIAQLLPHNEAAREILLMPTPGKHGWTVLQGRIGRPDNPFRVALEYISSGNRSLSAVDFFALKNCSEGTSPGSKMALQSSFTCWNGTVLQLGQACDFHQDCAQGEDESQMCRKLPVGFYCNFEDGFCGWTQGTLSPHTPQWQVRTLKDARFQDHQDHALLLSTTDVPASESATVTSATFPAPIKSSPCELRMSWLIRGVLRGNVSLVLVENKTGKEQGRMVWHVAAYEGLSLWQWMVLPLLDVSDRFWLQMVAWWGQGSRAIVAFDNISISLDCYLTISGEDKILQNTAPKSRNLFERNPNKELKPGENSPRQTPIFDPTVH

[2] = biological target: T1, ALK; assay: Western blot analysis of ALK in cell lysates and conditioned media; format: binding; design: endogenous in cells; host or cells: human neuroblastoma lines (NGP, SH-SY5Y, Kelly and others)
Text: (§1) (A) Western blot analysis of ALK in Kelly and SHEP neuroblastoma cells overexpressing GFP and mutated ALK using the mAb-7 and 8G7 anti-ALK antibodies. The mAb-7 antibody was developed at the Vigny laboratory (INSERM, Unité 706/Université Pierre et Marie Curie, Paris F-75005, France) (Moog-Lutz et al, 2005; PMID: 15886198) and obtained through a Materials Transfer Agreement. (B) Western blot analysis of ALK expression in various non-neuroblastoma cell lines: H1373 (human […]), HeLa (cervical cancer), NIH-3T3 (transformed mouse fibroblast cells) using 8G7 and C26G7 (rabbit monoclonal C-terminal anti-ALK antibody; Cell Signaling Technology; Cat #3333; RRID:AB_836862) anti-ALK antibodies.
(§2) The three HPLC-purified monoclonal antibodies (5H3, 7F7 and 8G7) all of the IgG1 subtype, were tested for their ability to bind to ALK in neuroblastoma cells expressing ALK. Both cell lysates and supernatants from cells grown with and without serum (to increase the expression of ALK) were tested by western blotting. […] (A) Western blot analysis of the indicated hybridoma clones in neuroblastoma cell lines expressing WT (NGP) and mutated (SHSY5Y, Kelly) ALK. NIH3T3 cells were used as controls. (B) Western blot analysis of conditioned media from NGP neuroblastoma and 293T cells engineered to express the WT ALK receptor, with the three ALK mAbs showing binding with the shed ALK extracellular domain. […]
(§3) Cell lysates were prepared in NP-40 buffer (Invitrogen) containing complete protease inhibitor (Roche), phosphatase inhibitor (Roche) and phenylmethylsulfonyl fluoride (PMSF). Lysates were incubated on ice for 20 min and centrifuged at 16,000 g for 15 min at 4° C. Protein concentrations of the supernatants were determined with the DC protein assay kit (Bio-Rad). Protein samples were denatured using NuPAGE LDS sample buffer (Invitrogen) and NuPAGE sample reducing agent (Invitrogen). Proteins were then separated on precast 4-12% Bis-Tris gels (Invitrogen) and transferred to nitrocellulose membranes (Bio-Rad). After blocking in blocking buffer (5% dry milk in TBS with 0.2% Tween-20), membranes were incubated with the primary antibody overnight at 4 °C, washed three times with TBST buffer, chemiluminescent detection performed with the appropriate secondary antibodies and developed using Genemate Blue ultra-autoradiography film (VWR).

[3] = tested on: ALK; assay: as above; format: binding, human
Text: as §1, §2
as §3, with “After blocking in blocking buffer (5% dry milk in TBS with 0.2% Tween-20), membranes were incubated with the primary antibody overnight at 4 °C, washed three times with TBST buffer, chemiluminescent detection performed with the appropriate secondary antibodies and developed using Genemate Blue ultra-autoradiography film (VWR).” left out

[4] = biological target: T2, full-length ALK receptor (Homo sapiens, UniProt Q9UM73); assay: Immunoprecipitation of ALK from neuroblastoma cell lysates; format: binding; details: immunoblotting with commercial anti-ALK C-terminal antibody
T2 construct: endogenous in cells
Text: Cell lysates from the indicated neuroblastoma cell lines were subjected to immunoprecipitation (IP) using 8G7 and subsequently to immunoblotting analysis using the commercial anti-ALK C-terminal antibody.

[5] = biological target: T3, ALK extracellular fragment (Homo sapiens, UniProt Q9UM73); assay: Sandwich ELISA of shed ALK ECD in patient sera; format: binding; details: sera of patients with ALK-expressing neuroblastoma
T3 construct: conditioned media containing the shed ALK (ALK 1-654) ECD fragment; from tissue; host or cells: serum of neuroblastoma patients
Text: Detection of the purified ALK-ECD protein using 8G7 (detection) and 7F7 (capture) anti-ALK antibodies by sandwich ELISA. (A) Standard curve showing the gradual increase in signal with increasing concentrations of the ALK-ECD protein in the media of NGP cells that express cleaved ALK. Quantification is shown below. (B) ELISA of the shed ALK ECD protein in sera from patients with neuroblastoma. Ample diluent buffer was used to dilute the serum samples, Media represents Dulbecco's Modified Eagle media in which human embryonic kidney 293T cells were grown, 293T media, conditioned media from 293T cells; ALK ECD 293T media, media collected from 293T cells in which the ALK-ECD-mFc protein was overexpressed.
We developed a sandwich ELISA technique where two ALK antibodies (for example, 5H3 or 7F7) can be used to capture the ALK extracellular fragment (antigen), and another antibody, such as the 8G7 antibody, can be used to detect the captured ALK extracellular fragment-5H3 or 7F7 complex. The different epitope binding sites of these antibodies on the ALK extracellular fragment protein allow for the development of the sandwich ELISA technique for the detection of the cleaved or shed ALK extracellular fragment in patient serum samples (FIG. 18). […]

[6] = biological target: MMP-9 (Homo sapiens, UniProt P14780); details: cited from earlier work
Chain of MMP-9 (P14780 94-707): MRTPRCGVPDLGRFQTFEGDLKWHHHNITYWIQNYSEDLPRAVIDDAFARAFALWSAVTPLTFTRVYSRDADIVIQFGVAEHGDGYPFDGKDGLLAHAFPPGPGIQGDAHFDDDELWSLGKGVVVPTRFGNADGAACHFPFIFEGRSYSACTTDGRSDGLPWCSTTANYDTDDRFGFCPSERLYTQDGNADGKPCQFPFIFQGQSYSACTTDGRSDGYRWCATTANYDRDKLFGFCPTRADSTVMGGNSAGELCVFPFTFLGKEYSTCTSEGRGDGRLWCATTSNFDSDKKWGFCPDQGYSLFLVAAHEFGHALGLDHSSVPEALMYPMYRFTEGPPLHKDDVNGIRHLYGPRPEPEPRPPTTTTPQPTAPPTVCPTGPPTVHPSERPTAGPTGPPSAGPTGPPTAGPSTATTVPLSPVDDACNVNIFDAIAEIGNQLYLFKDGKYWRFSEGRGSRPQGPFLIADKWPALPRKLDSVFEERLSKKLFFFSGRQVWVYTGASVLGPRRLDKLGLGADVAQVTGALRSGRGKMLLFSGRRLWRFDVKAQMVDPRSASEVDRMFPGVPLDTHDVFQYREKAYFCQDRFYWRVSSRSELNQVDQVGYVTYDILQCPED

T3 sequence (Q9UM73 19-654): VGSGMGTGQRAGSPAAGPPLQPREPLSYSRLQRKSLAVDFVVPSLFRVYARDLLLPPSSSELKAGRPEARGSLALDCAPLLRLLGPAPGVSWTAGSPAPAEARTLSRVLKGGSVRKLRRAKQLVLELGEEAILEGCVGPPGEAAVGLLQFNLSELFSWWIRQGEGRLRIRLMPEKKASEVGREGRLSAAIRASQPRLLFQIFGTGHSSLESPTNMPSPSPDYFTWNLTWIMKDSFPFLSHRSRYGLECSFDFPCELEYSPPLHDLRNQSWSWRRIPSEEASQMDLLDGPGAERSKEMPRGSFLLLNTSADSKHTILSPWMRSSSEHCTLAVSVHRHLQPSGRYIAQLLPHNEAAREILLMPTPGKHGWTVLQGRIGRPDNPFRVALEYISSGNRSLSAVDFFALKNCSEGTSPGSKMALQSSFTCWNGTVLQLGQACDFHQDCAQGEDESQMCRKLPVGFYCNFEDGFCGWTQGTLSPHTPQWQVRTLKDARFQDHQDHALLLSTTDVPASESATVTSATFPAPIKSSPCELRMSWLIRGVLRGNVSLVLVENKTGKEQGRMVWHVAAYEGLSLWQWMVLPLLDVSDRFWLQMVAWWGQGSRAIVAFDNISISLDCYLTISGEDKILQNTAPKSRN
T2 sequence (Q9UM73 19-1620): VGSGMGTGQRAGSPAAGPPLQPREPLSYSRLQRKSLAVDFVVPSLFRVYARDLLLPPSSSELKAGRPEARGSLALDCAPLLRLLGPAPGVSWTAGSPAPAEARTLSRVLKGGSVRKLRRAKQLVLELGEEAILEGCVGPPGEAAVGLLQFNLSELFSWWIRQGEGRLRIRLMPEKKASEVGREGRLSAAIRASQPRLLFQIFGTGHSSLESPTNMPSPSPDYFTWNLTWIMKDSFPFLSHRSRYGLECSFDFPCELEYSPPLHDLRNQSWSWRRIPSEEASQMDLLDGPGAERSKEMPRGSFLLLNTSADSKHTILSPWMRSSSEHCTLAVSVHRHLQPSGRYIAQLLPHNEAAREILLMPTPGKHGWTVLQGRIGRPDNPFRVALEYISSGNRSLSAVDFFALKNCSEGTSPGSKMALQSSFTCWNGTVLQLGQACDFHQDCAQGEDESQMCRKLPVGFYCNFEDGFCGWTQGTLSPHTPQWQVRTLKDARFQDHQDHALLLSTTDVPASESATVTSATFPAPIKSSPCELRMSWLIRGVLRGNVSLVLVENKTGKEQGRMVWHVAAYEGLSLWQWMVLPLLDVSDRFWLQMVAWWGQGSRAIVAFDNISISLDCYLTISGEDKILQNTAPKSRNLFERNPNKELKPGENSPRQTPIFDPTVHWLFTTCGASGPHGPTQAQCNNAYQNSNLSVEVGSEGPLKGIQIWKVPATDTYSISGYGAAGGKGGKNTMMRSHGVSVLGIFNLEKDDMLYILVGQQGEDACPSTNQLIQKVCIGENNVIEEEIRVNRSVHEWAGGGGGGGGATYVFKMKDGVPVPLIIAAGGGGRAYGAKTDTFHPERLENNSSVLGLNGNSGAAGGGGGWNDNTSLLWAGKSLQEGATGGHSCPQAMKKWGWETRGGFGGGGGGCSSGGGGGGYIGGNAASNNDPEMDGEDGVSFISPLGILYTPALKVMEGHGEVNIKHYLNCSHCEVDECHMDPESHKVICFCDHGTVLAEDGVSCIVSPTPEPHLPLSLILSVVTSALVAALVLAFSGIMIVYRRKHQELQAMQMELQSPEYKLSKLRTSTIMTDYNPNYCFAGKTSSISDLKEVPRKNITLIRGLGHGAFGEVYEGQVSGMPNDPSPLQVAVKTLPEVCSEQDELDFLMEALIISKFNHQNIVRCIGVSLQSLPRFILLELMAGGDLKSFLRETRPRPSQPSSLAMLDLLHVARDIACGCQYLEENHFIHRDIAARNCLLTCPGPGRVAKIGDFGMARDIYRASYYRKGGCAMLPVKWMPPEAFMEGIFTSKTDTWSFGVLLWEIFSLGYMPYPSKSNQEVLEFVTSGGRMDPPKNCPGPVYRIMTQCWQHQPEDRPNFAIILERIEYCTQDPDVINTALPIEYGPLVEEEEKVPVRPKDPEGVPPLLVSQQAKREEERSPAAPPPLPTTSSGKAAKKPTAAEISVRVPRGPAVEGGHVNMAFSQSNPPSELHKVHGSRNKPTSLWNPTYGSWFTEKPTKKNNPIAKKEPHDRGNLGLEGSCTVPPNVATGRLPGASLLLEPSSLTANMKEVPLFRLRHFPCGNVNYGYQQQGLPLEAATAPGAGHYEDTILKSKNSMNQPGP

ALK specificity of the clone's monoclonal antibody [1]: high ALK specificity | immunoprecipitation of ALK [4]: can immunoprecipitate ALK
B1: 5H3: murine monoclonal IgG1 anti-ALK antibody; VH SEQ ID NO: 13, VL SEQ ID NO: 14 (antibody)
heavy: MEWSWVFLFLLSVIAGVQSQVQLQQSGAELVRPGASVTLSCKASGYTFTDYEMHWVKQTPVHGLEWIGAIDPETGGSAYNQKFKAKAILTADRSSSTAYMELRSLTSEDSAVYYCTRTRYYGSSPAMDYWGQGTSVTVSSAKTTPPSVYPLAPGSAAQTNSMVTLGCLVKGYFPEPVTVTWNSGSLSSGVHTFPAVLQSDLYTLSSSVTVPSS
light: MSSAQFLGLLLLCFQGTRCDIQMTQTTSSLSASLGDRVTISCSASQGIGNYLNWYQQKPDGTVKLLIYYTSSLHSGVPSRFSGSGSGTDYSLTISNLEPEDIATYYCQQYSKLPYTFGGGTKLEIKRADAAPTVSIFPPSSEQLTSGGASVVCFLNNFYPKDINVKWKIDGSERQNGVLNSWTDQDSKDSTYSMSSTLTLTK
ALK protein recognized by western blotting in cell lysates ([2]; cell lysates of neuroblastoma cells expressing ALK): recognized a 220 kDa protein in the cell lysates of neuroblastoma cells | ALK protein recognized by western blotting in media ([2]; conditioned media of NB cells, shed ECD domain): an approximately 100 kDa protein in the media | recognition of ALK in immunoblotting assays [3]: recognize ALK in immunoblotting assays | recognition of circulating ALK extracellular fragment in sera [5]: recognize the circulating ALK extracellular fragment in the sera of patients with ALK-expressing neuroblastoma

B2: andecaliximab: selective MMP-9 antibody (Gilead) (antibody, chains of the INN, looked up, V domains shown)
VH: QVQLQESGPGLVKPSETLSLTCTVSGFSLLSYGVHWVRQPPGKGLEWLGVIWTGGTTNYNSALMSRFTISKDDSKNTVYLKMNSLKTEDTAIYYCARYYYGMDYWGQGTLVTVSS
VL: DIQMTQSPSSLSASVGDRVTITCKASQDVRNTVAWYQQKPGKAPKLLIYSSSYRNTGVPDRFSGSGSGTDFTLTISSLQAEDVAVYYCQQHYITPYTFGGGTKVEIK
clinical activity ([6]; combined with standard chemotherapy, gastric and gastroesophageal junction adenocarcinoma): showed activity when combined with standard chemotherapy | target engagement and dose-limiting toxicity ([6]; patients with gastric and gastroesophageal junction adenocarcinoma): achieved target engagement without dose-limiting toxicity
